The values that follow come from patent publication US11898183B2, “Programmed microorganisms to attenuate a disease” (priority 2020, dated 2024).

The chains are these.
B1: SDH Juglans regia: Secoisolariciresinol dehydrogenase (SDH) from Juglans regia (protein, listed as Juglans regia)
chain: MNGTSSLLAPIAKRLAGKVALITGGASGIGESTARLFAEQGAKVIIADVQDELGFSVSQDKSINGAISYIHCDVTSESDVQNAVNTAVSKHGKLDIMFNTAGCTGQNKASILDHEQKDYKTVFDVNVLGSFLGAKHAAKVMIPVKRGTILFTASCVTESHGLASHSYTASKHAVVGLTKNLCVELGQYGIRVNCISPYGAATPLFLKGMGIDKKEKAEEILSSAANLKGPVLEAGDLAEAALFLASEESKYVSVLNLVVDGGYSATNVAFTETIQKFFT
B2: CCoAOMT Eleocharis dulcis: Caffeoyl CoA O-methyltransferase (CCoAOMT) from Eleocharis dulcis (protein)
chain: MSTTTTTQTKTETQSQTGAQNGAEQQTRHSEVGHKSLLQSDALYQYILETSVYPREPECMKELRDITAKHPWNLMTTSADEGQFLNLLLKLIGAKKTMEIGVYTGYSLLATALAIPEDGTILAMDINRENYELGLPVIEKAGVAHKIDFREGPALPVLDQLIEDPANLGSFDFIFVDADKDNYLNYHKRLIELVKVGGVIGYDNTLWNGSVVLPADAPMRKYIRYYRDFVLELNKALAADPRIEISQLPVGDGITLCRRVK
modifications: Depicts the nucleic acid sequence encoding Caffeoyl CoA O-methyltransferase (CCoAOMT)
B3: DIRPLR Linum usitatissimum: Bifunctional pinoresinol-lariciresinol reductase (DIRPLR) from Linum usitatissimum (protein, listed as Linum usitatissimum)
chain: MGRCRVLVVGGTGYIGKRIVKASIEHGHDTYVLKRPETGLDIEKFQLLLSFKKQGAHLVEASFSDHESLVRAVKLVDVVICTVSGAHSRSLLLQLKLVEAIKEAGNVKRFIPSEFGMDPARMGDALEPGRETFDLKMVVRKAIEDANIPHTYISANCFGGYFVGNLSQLGPLTPPSDKVTIYGDGNVKVVYMDEDDVATYTIMTIEDDRTLNKTMYFRPPENVITHRQLVETWEKLSGNQLQKTELSSQDFLALMEGKDVAEQIVIGHLYHIYYEGCLTNFDIDADQDQVEASSLYPEVEYTRMKDYLMIYL
B4: CYP71 Cinnamomum micranthum: CYP71 from Cinnamomum micranthum (protein)
chain: MALLLSLLFFASALIFLLKLNGQRANKTDVPPSPPKLPLIGNLHQLGTLPHRSLRSLAGKYGPLMLLYLGRIPTLIVSSEEMAEQIMKTHDLIFASRPSITAAKELLYGCTDLAFASYGEYWRQVRKMCVLELLSIKRVNSFRSIMEEEVGLMIERISQSSSTGAAVNLAELFLSLTGGTIARAALGKKYEGEAEEGRNKYADLVKELHALLGAFSVGDYFPSLAWVDVVTGLHGKLKRNSRELDRFLDQVIEHHLMRPLDGCDVGEHTDLVDVMLQVQKDSNRDIHLTRDNIKAIILDMFSAGTDTTALTLEWVMAELAKHPNVMKKAQGEVRRVVDVKANISEEHLCQLNYMKSIIKETLRLHPPAPLLVPRESTTNVKIQNFHIPPKTRVFINAYAIGRDPTSWENPEEFLPERFANNSVDFKGQDFQFIPFGAGRRGCPGLSFAITSLELALANLLYWFDWELPQGVTEEDLDMSEALGITVHKKLPLYLVPKNHFS
modifications: Depicts the nucleic acis sequence encoding CYP71 of Cinnamomum micranthum
B5: OMT Sinopodophyllum hexandrum: O-methyltransferase 3 (OMT) from Sinopodophyllum hexandrum (protein)
chain: MEMAPTMDLEIRNGNGYGDSGEELLAAQAHIYNHIFNFISSMALKCAVELNIPEILHNHQPKAVTLSELVQALQIPQAKSACLYRLLRILVHSGFFAITKIQSEGDEEGYLPTLSSKLLLKNHPMSMSPCLLGLVNPTMVAPMHFFSDWFKRSDDMTPFEATHGASLWKYFGETPHMAEIFNEAMGCETRLAMSVVLKECKGKLEGISSLVDVGGGTGNVGRAIAEAFPNVKCTVLDLPQVVGNLKGSNNLEFVSGDMFQFIPPADVVFLKWILHDWNDEECIKILKRCKEAIPSKEEGGKLIIIDMVVNDHNKGSYESTETQLFYDLTLMALLTGTERTETEWKKLFVAAGFTSYIISPVLGLKSIIEVFP
modifications: Depicts the nucleic acid sequence encoding O-methyltransferase 3 (OMT) of Sinopodophyllum hexandrum
notes: O-methyltransferase 3 (OMT) from Sinopodophyllum hexandrum
B6: 2-ODD Nitrospira moscoviensis: 2-oxoglutarate/Fe(II)-dependent dioxygenase (2-ODD) from Nitrospira moscoviensis (protein, listed as Nitrospira moscoviensis)
chain: MVSNMAMGITEAVDRAVAALDVDRLHREYWEQNEFLVIRQFLPRAFVEEVLVPQAQGVKTELNRNYIPGHKKGGSVSYYTVRRRAPLFLDLYRSDSFRAFLDRLVDAKLLLCPENDPHSCALYYYTEPGDHIGFHYDTSYYKGARYTILMGLVDRSTQCKLVCELFKDHPTKAPQRLELITEPGDMVIFNGDKLWHAVTPLGEGEERIALTMEYVTNPEMGAFKRLYSNLKDSFAYFGLKTVFKQALAKKSS
B7: CCoAOMT Chamaecyparis formosensis: Caffeoyl CoA O-methyltransferase (CCoAOMT) from Chamaecyparis formosensis (protein)
chain: MATVEATKDSTQQVSRHQEVGHKSLLQSDALYQYILETSVYPREPEPMRELREITAKHPWNLMTTSADEGQFLHLLLKLINAKNTMEIGVYTGYSLLSTALALPDDGKILAMDINRENYELGLPVIQKAGVAHKIDFREGPALPVLDQMLENKEMHGSFDFIFVDADKDNYLNYHKRLIDLVKIGGVIGYDNTLWNGSVVAPPDAPMRKYVRYYRDFVIELNKALAADPRIEISQIPVGDGITLCRRII
modifications: Depicts the nucleic acid sequence of Caffeoyl CoA O-methyltransferase (CCoAOMT) of Chamaecyparis formosensis
B8: CYP719 Cinnamomum micranthum: CYP719 from Cinnamomum micranthum (protein)
chain: MEAIWTAVAIGIAAAVLMAFRGRQRQRLSRKPTQWPPGPTRLPLIGNMHQILLKGGDPFHVAINKLAQVYGPLMTVWFGTRQPTIIVSDHNLVWEVLVSKSADYAAREIPITLKPSLADFRTIVSSNAGPLWHSLRRGLQNGAIGPHSLSLQAPFQESDMAQMINNMIKEANLNGGVVKPFPHIRRAIIKLLARICFGCDFSDEEFDATMDFMVEEALRYSDDSRILDTFPPARFLPSVKRAVMQMEKVKLRLMECIGRPLDSPLPPTCYAHFLLSQSFPREVAIFSIFELFLLGVDSTGSTTMWGLGLLMQNQEAQQKLYQEIREHASCNEKGVVKVEELGKLEYLQAVAKETMRMKPIAPLAVPHQAARDTTLDGLHVAEGTTVLANLYALHYDPKVWDEPERFKPERFLESSKEFLGKRGQYSFLPFGAGMRACAGMEVGKLQLPFAICNLVNAFNWSNVVEKEAPKLIEGFSFILSMKTPLEARIVPRGI
modifications: Depicts the nucleic acid sequence encoding CYP719 of Cinnamomum micranthum
B9: 2-ODD Nitrospira japonica: 2-oxoglutarate/Fe(II)-dependent dioxygenase (2-ODD) from Nitrospira japonica (protein)
chain: MMGGAMTTQTLDTIAEAVDQAVARLDFDRLHREYWEQNEFLVIPQFLDRAMVEEWLVPQAQGVKGDLNRNYIPGHKKGGSVSYYTVMEKAPRFLDLYRSQVFIEFLSRLSHAKLRLCPDNDPHSCALYYYTEPGDHIGFHYDTSYYKGSRYTILMGLVDQSTHCKLVCELFKDDPVRPSKRLELITQPGDMVIFNGDKLWHAVTPLGPNEERIALTMEYVTNPDMGTFKRLYSNLKDSFAYFGLRAVFKRALSLPRR
modifications: Depicts the nucleic acid sequence of 2-oxoglutarate/Fe(II)-dependent dioxygenase (2-ODD) of Nitrospira japonica
notes: 2-oxoglutarate/Fe(II)-dependent dioxygenase (2-ODD) from Nitrospira japonica

This data set relates to pathway specific substrates. The experiment in a line: Enzyme functionality of pathway enzyme homologs and fusion constructs in lysed E. coli cell extracts, product by HPLC. The class given is biochemical, E. coli BL21. As to conditions: protein expressed in E. coli, lysed cell extract, pathway specific substrate, HPLC. Here is the method:
As per one of the possible implementations of the present disclosure, two proteins—cinnamate-4-hydroxylate (C4H) and 4-coumaroyl CoA-ligase (4CL) were expressed as one fusion protein. Also, other two proteins which were expressed as one fusion protein were hydroxycinnamoyl-CoA quinate hydroxycinnamoyltransferase (HCT) and p-coumaroyl quinate 3′-hydroxylase (HCTC3H). The fusion gene and the corresponding fusion protein was prepared using the following method. […] The enzyme fusion constructs were made for the selected genes (Table 5). Pathway genes and the fusion constructs were individually cloned in E. coli expression vector pET28+ under T7 promoter and transformed in E. coli BL21 cells. Recombinant bacterial cells were induced with IPTG and enzyme functionality was tested with pathway specific substrates (Table 5) using lysed E. coli cell extracts. HPLC analysis was carried out to quantify the product formation and in turn shortlisting of efficient enzymes for functional pathway assembly towards Etoposide in E. coli.
The E. coli transformants were grown overnight at 37° C. in 1 ml of M9 minimal media containing ampicillin (100 mg/1), in 96-well format. The next day, 150 μl of each culture was inoculated into 3 ml M9 minimal media containing ampicillin (100 mg/1), IPTG 0.1 mM in 24-well format, and incubated at 30° C. and 200 rpm for ˜20 hours. The following day, cells were spun down and pellets were resuspended in 100 μl of lysis buffer containing 10 mM Tris-HCl pH 8, 5 mM MgCl2, 1 mM CaCl2) and complete mini protease inhibitor EDTA-free (3 tablets/100 ml) (Hoffmann-La Roche, Basel, Switzerland) and frozen at −80° C. for at least 15 minutes to promote cell lysis. Pellets were thawed at room temperature and 50 μl of DNase mix (1 μl of 1.4 mg/ml DNase in H2O (˜80000 u/ml), 1.2 μl of MgCl2 500 mM and 47.8 μl of 4×PBS buffer solution) was added to each well. Plates were shaken at 500 rpm for 5 min at room temperature to allow degradation of genomic DNA. Plates were spun down at 4000 rpm for 30 min at 4° C. and six μl of the lysates were used in in vitro using appropriate substrates for enzymes as per Table 6. In each case, the resulting compounds were measured by HPLC. Results were analysed in comparison with the lysates expressing the corresponding controls (the empty plasmid). […]
With B1, the enzyme activity is given as 99%. On to B2, for which the enzyme activity is listed as 61%. In the case of B3, the “enzyme activity (in words)” value is “desirable enzyme activity”.

In turn, B4 came in with an enzyme activity of 94%. Molecule B5 registered an enzyme activity of 99%. The molecule B6 came in with an enzyme activity of 96%.

As to B7, the enzyme activity is 95%. B8: the “enzyme activity (in words)” value is listed as “highest enzyme activity”. B9 had an enzyme activity of 88%.
